In one assay the target is T1, SmeCOSe (Sinorhizobium meliloti, UniProt O69787).
T1 construct: gene betC; full length, C-terminal His6 (pET-21b(+), plasmid pSERQF5), E. coli BL21(DE3); homotetramer, about 201 kDa; Cys54 is formylglycine in wild type; natural difference at residue 105 (printed F105L against strain GR4 CP003933.2, but L105F)
The assay is described as follows: absorbance at […] nm (p-nitrophenol release). It is filed as biochemical. The settings on record: pH 7.0.

The target of assay [1] is wild-type Sinorhizobium (Ensifer) meliloti choline-O-sulfatase (Sinorhizobium (Ensifer) meliloti CECT4857) (UniProt O69787). Kind of assay: SEC; 100 ul samples of SmeCOSe (0.1-1 mg/ml, three concentrations) on a Tricorn Superdex 200 column, 20 mM Tris-HCl pH 8.0; mass estimated against standards.
Assay [2] has the same target. Kind of assay: dynamic light scattering; 20 uM (in protomer units), 20 mM Tris-HCl pH 8.0, 20 C; mass from the hydrodynamic radius assuming a spherical shape.

One may read the Km as the substrate concentration at which the rate is half of its maximum. Take `O=[N+]([O-])c1ccc(OS(=O)(=O)O)cc1` [pNPS]: the Km on SmeCOSe was determined as 45.7 ± 12.5 mM.

Usually stoichiometry N stands for a count of units in the complex or per binding partner. As to “wild-type Sinorhizobium (Ensifer) meliloti choline-O-sulfatase (from UniProt O69787 2-512) (enzyme)”, the stoichiometry N in assay [1] and in assay [2] was 4 in each case.

(Values after paper PMC9063841, “Structural insights into choline-O-sulfatase reveal the molecular determinants for ligand binding” (Acta Crystallographica. Section D, Structural Biology, 2022).)
